{"source": "paper PMC3179271", "key": {"[1]": {"target": "FLAG-V5-Blow (Drosophila)", "assay": "co-IP"}, "[2]": {"target": "FLAG-V5-WASP (Drosophila)", "assay": "co-IP"}}, "data": [{"substance": "FLAG-Sltr (natural protein)", "values": [{"measurement": "Kd", "setting": "[1]", "value": 48.1, "unit": "nM"}, {"measurement": "Kd", "setting": "[2]", "value": 6.7, "unit": "nM"}]}]}
